Data reported in patent publication US20190367620A1.

Key:
[1] = target: Human FGF2 (human) (UniProt P09038); assay: cell-based or functional assay
[2] = target: Human FGF1 (human) (UniProt P05230); assay: cell-based or functional assay
Sequence of Human FGF1 (human) (P05230 16-155 limits assumed): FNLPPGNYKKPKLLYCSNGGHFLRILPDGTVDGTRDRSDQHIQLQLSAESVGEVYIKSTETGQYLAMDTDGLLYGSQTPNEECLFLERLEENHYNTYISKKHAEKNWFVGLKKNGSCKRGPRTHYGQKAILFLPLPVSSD

Sequence of Human FGF2 (human) (P09038 135-288 limits assumed): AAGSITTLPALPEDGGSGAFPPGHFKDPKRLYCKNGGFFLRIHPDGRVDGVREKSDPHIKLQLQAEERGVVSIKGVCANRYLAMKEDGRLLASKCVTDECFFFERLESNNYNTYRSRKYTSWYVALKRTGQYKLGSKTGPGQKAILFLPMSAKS

IC50, inhibition of P-FGFR1 in NCI-H520 cells, FGF2 stimulated [1]: 30 nM
IC50, inhibition of P-FGFR1 in NCI-H520 cells, FGF1 stimulated [2]: 50 nM
Substance: FP-1039 (Fc fusion)
